One assay addresses actin (ATP-actin:GS1) (Oryctolagus cuniculus, UniProt P68135). As to the kind of experiment: ITC. Background: ITC needs no label: the signal is the heat of the interaction.
The target in assay [1] is actin filament pointed end (Oryctolagus cuniculus, UniProt P68135). As to the kind of experiment: pointed end elongation assay.

Four molecules from PMC4367809 (2015) can be followed below.

As a reminder, the Kd is the equilibrium constant for the complex coming apart.

B1: Tropomodulin-1 ABS1 50-101 (protein)
chain: QKDQTTKAPTGPFKREELLDHLEKQAKEFKDREDLVPYTGEKRGKVWVPKQK
modifications: actin in complex with gelsolin segment 1, ATP
The molecule B1 showed a Kd with actin (ATP-actin:GS1) of 7.5 µM.

B2: Tropomodulin-1 (protein)
chain: MSYRRELEKYRDLDEDEILGALTEEELRTLENELDELDPDNALLPAGLRQKDQTTKAPTGPFKREELLDHLEKQAKEFKDREDLVPYTGEKRGKVWVPKQKPLDPVLESVTLEPELEEALANASDAELCDIAAILGMHTLMSNQQYYQALSSSSIMNKEGLNSVIKPTQYKPVPDEEPNSTDVEETLERIKNNDPKLEEVNLNNIRNIPIPTLKAYAEALKENSYVKKFSIVGTRSNDPVAYALAEMLKENKVLKTLNVESNFISGAGILRLVEALPYNTSLVEMKIDNQSQPLGNKVEMEIVSMLEKNATLLKFGYHFTQQGPRLRASNAMMNNNDLVRKRRLADLTGPIIPKCRSGV
modifications: 1 uM tropomyosin, filament seeds capped at barbed end by capping protein
As to B2, binding in assay [1] was put at a Kd of 0.028 µM.

B3: Tropomodulin-1 (protein)
chain: B2 chain
modifications: filament seeds capped at barbed end by capping protein
For the molecule B3, the Kd in assay [1] worked out at 0.108 µM.

B4: Tropomodulin-1 ABS2 160-349 (protein)
chain: GLNSVIKPTQYKPVPDEEPNSTDVEETLERIKNNDPKLEEVNLNNIRNIPIPTLKAYAEALKENSYVKKFSIVGTRSNDPVAYALAEMLKENKVLKTLNVESNFISGAGILRLVEALPYNTSLVEMKIDNQSQPLGNKVEMEIVSMLEKNATLLKFGYHFTQQGPRLRASNAMMNNNDLVRKRRLADLTG
modifications: actin in complex with gelsolin segment 1, ATP
The molecule B4 had a Kd with actin (ATP-actin:GS1) of 10.5 µM.
